Target: T1, OmpA ( (endogenous in the host …, UniProt P0A910 22-346))
T1 construct: OmpA, outer membrane protein; source: endogenous, in cells / DDM-solubilized membrane fraction
T1 sequence (looked up): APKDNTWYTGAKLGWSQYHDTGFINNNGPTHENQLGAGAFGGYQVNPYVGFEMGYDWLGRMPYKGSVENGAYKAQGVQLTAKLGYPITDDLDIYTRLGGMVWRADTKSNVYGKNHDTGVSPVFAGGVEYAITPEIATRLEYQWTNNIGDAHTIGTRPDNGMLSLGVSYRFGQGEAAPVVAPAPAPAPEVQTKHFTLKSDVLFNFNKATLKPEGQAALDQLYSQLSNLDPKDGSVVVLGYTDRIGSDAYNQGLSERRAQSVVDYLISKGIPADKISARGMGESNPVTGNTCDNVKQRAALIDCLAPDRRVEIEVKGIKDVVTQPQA
Assay: cross-linking; in vivo formaldehyde crosslinking; OM version of RcsF variants with endogenous OmpA (and BamA); immunoblot of whole cell lysates probed with α-RcsF, RcsF/OmpA band quantified relative to the WT
Settings: partners not purified

- percent decrease of RcsF/OmpA complex relative to WT: 50%
B1: RcsF(A55V), OM version (natural protein, UniProt P69411 16-134, looked up)
chain: CSMLSRSPVEPVQSTAPQPKAEPAKPKAPRATPVRIYTNVEELVGKPFRDLGEVSGDSCQASNQDSPPSIPTARKRMQINASKMKANAVLLHSCEVTSGTPGCYRQAVCIGSALNITAK
modifications: lipidated N-terminal cysteine (residue 16)
notes: RcsF, sensory outer membrane lipoprotein; mature RcsF = residues 16-134 (NTD 16-48, CTD 49-134); also called GOF[OM] variant; source: expressed from the low copy number vector pZS21 in a ΔrcsF strain; in cells

Reference: publication PMC9907809, “Conformational rearrangements in the sensory RcsF/OMP complex mediate signal transduction across the bacterial cell envelope” (PLOS Genetics, 2023)
